Ten molecules from patent US20110105397A1, “METHOD FOR TREATING HEART FAILURE WITH STRESSCOPIN-LIKE PEPTIDES” (priority 2009, published 2011) can be followed below.

Where no end group is shown, it is not given here. Side-chain parts run from the residue outwards. acetamide = acetamide linker between the Cys residue and the PEG

Series [1] is described as follows: Nonclinical pharmacokinetics in rats. Also noted: species or system rat. The settings on record: rat, in vivo; for % F (Bioavailability) / AUC0-∞ / Tmax: sc. The method, then: (§1) A sandwich immunoassay was developed using an affinity purified goat polyclonal antibody, specific to h-SCP that was pre-coated onto a microplate with integrated electrodes. h-SCP molecules present in the sample will bind to the capture polyclonal antibody coated on the plate. After washing away any unbound substances, a sulfo-tagged mouse monoclonal anti-h-SCP antibody was added. This conjugated antibody will bind to the h-SCP molecules captured on the microplate and the quantity of analyte was determined by electrochemiluminescence. The amount of signal generated is directly proportional to the h-SCP concentration in the sample or standard. The standard curve range is 3.125-1600 pg/mL with a quantifiable range from 10-800 pg/mL. A sample volume of 25 μL (in duplicate) is required for this assay. This immunoassay is specific for human and dog stresscopin and human urocortin III (h-UCN3). […] After completion of the analysis, based on a comparison of reference standards between the ELISA and HPLC method, a correction factor of 1.57 was applied to all bioanalytical data.
(§2) The nonclinical pharmacokinetics of h-SCP (SEQ ID NO:1) and pegylated stresscopin-like peptides were studied in rats, dogs, and cynomolgus monkeys (cyno). Nonclinical pharmacokinetic studies focused on characterization of IV infusion at pharmacologically relevant dose levels, supplemented with IV and SC bolus and toxicokinetic analysis.

Series [2] is described as follows: Nonclinical pharmacokinetics in dogs. Conditions: dog, in vivo. The arrangement: species or system dog. The method, then: as §1, §2
Another series addresses T1, human CRHR2 (Homo sapiens, UniProt Q13324).
T1 construct: expressed in transfected cells
T1 sequence (Q13324 1-411): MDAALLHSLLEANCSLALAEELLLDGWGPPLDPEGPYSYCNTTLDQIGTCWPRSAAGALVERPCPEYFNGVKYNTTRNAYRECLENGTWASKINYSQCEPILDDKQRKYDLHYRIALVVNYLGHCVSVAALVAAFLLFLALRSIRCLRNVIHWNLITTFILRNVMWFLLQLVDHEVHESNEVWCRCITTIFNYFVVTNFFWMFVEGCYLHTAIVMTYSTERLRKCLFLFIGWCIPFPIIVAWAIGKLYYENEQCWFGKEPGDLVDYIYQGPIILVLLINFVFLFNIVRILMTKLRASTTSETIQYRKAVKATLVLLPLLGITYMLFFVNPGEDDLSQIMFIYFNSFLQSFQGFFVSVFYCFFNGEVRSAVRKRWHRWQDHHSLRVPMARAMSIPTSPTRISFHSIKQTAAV
In words: cAMP assay, h-CRHR2 transfected SK-N-MC cells. Format: cell-based. Conditions: for EC50 / Log DR [M]: Table 13; for EC50: cysteine mutation, N-ethylmaleimide capping, pegylation, read-out: pA50 (converted); for Log DR [M]: h-SCP control pA50 minus test compound pA50 within the same assay batch. The method in brief:
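Intracellular cAMP was quantified by radioligand competition against a cAMP standard curve after HCl lysis of h-CRHR2-transfected SK-N-MC cells. These cells had been exposed to peptides from 1 pM to 1 μM for 1 h at 37 °C with IBMX. Responses were scaled to the daily h-SCP maximum and fitted to the Hill equation to give A50/pA50.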
For orientation: Cyclic AMP is a second messenger, typically raised through Gs and lowered through Gi signalling.

In the next series the test system is HF dogs. In words: Single SC bolus injection in HF dogs. Format: in vivo, dog. Here is the method: After reaching a steady state plasma concentration, the heart rate remained fairly stable. […] The target plasma concentration of about 60 ng/mL is reached in about 2 hours and 10 minutes after the time point of injection, then leveling off at about 100 ng/mL after about 3, still maintaining its level at about 6 hours after injection. The stresscopin-relative concentration of 60 ng/mL and of 100 ng/mL of a SEQ ID NO:102 peptide is 600 pg/mL and 1000 pg/mL, respectively.

Series [3] addresses T2, human corticotrophin releasing hormone receptor type 2 (CRHR2) (human, UniProt Q13324 1-411).
T2 sequence (looked up): T1 sequence (Q13324 1-411)
Nature of the series: cell-based or functional assay.

In series [4] the target is T3, human corticotrophin releasing hormone receptor type 2 (CRHR2) (human) (UniProt Q13324).
T3 sequence (looked up): T1 sequence (Q13324 1-411)
In words: radioligand competition against [125I]-anti-sauvagine-30, membranes of SK-N-MC cells with human CRHR2. For orientation: Displacement assays read how much labelled ligand stays bound in the presence of the test substance.

Series [5] addresses T4, human corticotrophin releasing hormone receptor type 1 (CRHR1) (human, UniProt P34998 24-415).
T4 sequence (looked up): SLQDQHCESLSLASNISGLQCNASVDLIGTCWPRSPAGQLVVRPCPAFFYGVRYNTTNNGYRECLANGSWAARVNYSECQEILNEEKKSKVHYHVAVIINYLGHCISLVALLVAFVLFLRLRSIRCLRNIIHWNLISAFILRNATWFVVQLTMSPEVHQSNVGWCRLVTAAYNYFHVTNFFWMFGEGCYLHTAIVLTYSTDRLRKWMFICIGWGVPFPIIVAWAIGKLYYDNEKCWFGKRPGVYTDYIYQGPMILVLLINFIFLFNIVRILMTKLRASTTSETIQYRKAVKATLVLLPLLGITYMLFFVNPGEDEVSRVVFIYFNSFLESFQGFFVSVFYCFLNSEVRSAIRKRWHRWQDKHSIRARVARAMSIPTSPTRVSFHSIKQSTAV
Nature of the series: cell-based or functional assay.

Series [6] addresses T3, human corticotrophin releasing hormone receptor type 2 (CRHR2) (human). In words: cell-based or functional assay.
Series [7] concerns the target T4, human corticotrophin releasing hormone …. In words: radioligand competition against [125I]-(Tyr0)-sauvagine, CRHR1 assay, cell membranes. The method, then:
Frozen cell pellets were defrosted on ice in 15 ml of assay buffer that was composed of 10 mM HEPES, 130 mM NaCl, 4.7 mM KCl, 5 mM MgCl₂, and 0.089 mM bacitracin at pH 7.2 and 21±3° Celsius. The solution was then homogenized with a Polytron tissue grinder at a setting of 10 and 7×3 s (Brinkmann Instruments, Westbury, N.Y.). The homogenate was centrifuged at 4° Celsius at 800×g for 5 min with the pellet being discarded. The supernatant was re-centrifuged at 26,892×g for 25 min at 4° Celsius with the final pellet being re-suspended in assay buffer. All binding assays were conducted in 96-well Multiscreen GF/B filter plates (Millipore, Billericay, Mass., U.S.A.) that were pre-soaked in assay buffer with 0.3% PEI for 1 hour. […]
The bound radioactivity was separated by filtration using a Multiscreen Resist manifold (Millipore Corp., Billerica, Mass., U.S.A). The filters were washed three times with ice-cold PBS at pH 7.5 and radioactivity retained on the filters was quantified by its liquid scintillation measured by a TopCount counter (Packard BioScience, Boston, Mass., U.S.A). […]
Data from individual competition curves were expressed as the percentage of specific [¹²⁵I]-anti-sauvagine-30 or)[¹²⁵I]-(Tyr⁰-sauvagine binding (B) within each experiment.

For orientation: Tmax means the time from dosing to the highest level. What is called Cmax is the maximum level reached in the sampled fluid or tissue. “TKFTLSLDVPTNIMNLLFNIAKAKNLRC(-IA-PEG MW20000)QA AANAH LMAQI-NH2 (TKFTLSLDVPTNIMNLLFNIAKAKNLRC([acetamide-PEG 20 kDa])QAAANAHLMAQI-NH2) [SEQ ID NO: 102]”: the “Vz (volume of distribution)” value came out at 0.51 ± 0.023 L/kg in series [1] (iv, 15 ug/kg) and 0.034 ± 0.007 L/kg in series [2] (iv, 15 ug/kg). Also, the “% F (Bioavailability)” value was 36% in [1] (15 ug/kg); 20% in [1] (150 ug/kg); 71% in [2] (sc, 5 ug/kg); 41% in series [2] (sc, 15 ug/kg). Further, the “AUC0-∞” value was 342 ± 107 ng·h/mL in series [1] (15 ug/kg); 1914 ± 464 ng·h/mL in [1] (150 ug/kg); 3510 ± 270 ng·h/mL in [2] (sc, 5 ug/kg); 6089 ± 1808 ng·h/mL in series [2] (sc, 15 ug/kg). Further, the Tmax turned out to be 7 ± 1 h in [1] (15 ug/kg); 6.3 ± 1.8 h in [1] (150 ug/kg); 32 ± 8 h in series [2] (sc, 5 ug/kg); 5 ± 1 h in series [2] (sc, 15 ug/kg). This molecule also displayed a Cmax in [2] (sc, 5 ug/kg) of 24.6 ± 2.6 ng/mL. Further, the “pA50 in the presence of anti-sauvagine-30” value with human CRHR2 (100 nM anti-sauvagine-30, maximal response constrained to 100%) is given as around 6.89. In addition, the “agonist potency ratio to stresscopin of SEQ ID NO:1 reduced by a factor” value with human CRHR2 (10^(9.40-8.15)) worked out at 17.78. The molecule further had a nH with human CRHR2 (Table 14) of 1.05. Further, the pA50 with human CRHR2 (Table 14) came to 8.15. In the series with human CRHR2 (Table 14, % of the maximum response obtained to h-SCP), the αmax came out at 111.1%. In the series on HF dogs (HF dogs, bolus SC injection 30 μg/kg), the heart rate result is given as “declined over the first few hours”. For the same molecule, the “LVEF and CO performance” value in the series on HF dogs (HF dogs, bolus SC injection 30 μg/kg, up to 4 hours) is on record as “significantly increased”. In addition, the values for the stresscopin-relative concentration in the series with HF dogs (of 60 ng/mL of SEQ ID NO:102 peptide) and in the series with HF dogs (of 100 ng/mL of SEQ ID NO:102 peptide) were 600 pg/mL and 1000 pg/mL, respectively.

Take “TKFTLSLDVPTNIMNCLFNIAKAKNLRAQAAANAHLMAQI-NH2 [SEQ ID NO: 17, TKFTLSLDVPTNIMNCLFNIAKAKNLRAQAAANAHLMAQI-NH2]”: at human CRHR2, the EC50 is 0.316 nM and the “Log DR [M]” value is listed as 0.02.

With “TKFTLCLDVPTNIMNLLFNIAKAKNLRAQAAANAHLMAQI-NH2 [SEQ ID NO: 7, TKFTLCLDVPTNIMNLLFNIAKAKNLRAQAAANAHLMAQI-NH2]”, at human CRHR2, the EC50 was 25.1 nM and the “Log DR [M]” value came out at 2.08.

As to “TKFTLSLDVPTNIMNLLFNIAKAKNLRACAAANAHLMAQI-NH2 [SEQ ID NO: 30, TKFTLSLDVPTNIMNLLFNIAKAKNLRACAAANAHLMAQI-NH2]”, on human CRHR2, the EC50 was 3.98 nM and the “Log DR [M]” value was found to be 1.28.

“TKCTLSLDVPTNIMNLLFNIAKAKNLRAQAAANAHLMAQI-NH2 [SEQ ID NO: 4, TKCTLSLDVPTNIMNLLFNIAKAKNLRAQAAANAHLMAQI-NH2]”: at human CRHR2, the EC50 is 2.24 nM and the “Log DR [M]” value was 1.03.

Turning to TLSLDVPTNIMNLLFNIAKAKNLRAQAAANAHLMAQI-NH2 [Stresscopin-like peptide with shortened amino acid sequence, 37 aa, SEQ ID NO: 108], the pA50 in series [3] is 8.49 -log10(M).

KFTLSLDVPTNIMNLLFNIAKAKNLRAQAAANAHLMAQI-NH2 [Stresscopin-like peptide with shortened amino acid sequence, 39 aa, SEQ ID NO: 107]: the pA50 in [3] was 9.25 -log10(M).

With IVLSLDVPIGLLQILLEQARARAAREQATTNARILARV-NH2 [human urocortin 2], the pKI in [4] is 7.74 -log10(M). Also, the pA50 in series [5] is 6.02 -log10(M); in series [6], 9.51 -log10(M).

For FHLLRKMIEIEKQEKEKQQAANNRLLLDTI-NH2 (also called SV30; AS-30) [anti-sauvagine-30], the pKI in series [4] is 7.78 -log10(M); in [7], 5.81 -log10(M). Also, the pA2 (antagonism of the cAMP response to h-SCP) in series [6] is 7.82 -log10(M).

As for LSLDVPTNIMNLLFNIAKAKNLRAQAAANAHLMAQI-NH2 [Stresscopin-like peptide with shortened amino acid sequence, 36 aa, SEQ ID NO: 109], the pA50 in series [3] is 7.34 -log10(M).
